Measured values as given in patent US10426815B2, “Prevention and treatment of itch with an MRGPR antagonist” (THE GENERAL HOSPITAL CORPORATION, priority 2015, dated 2019).
Entries after “also recorded” stand apart in the source; their conditions may differ. Blank lines part the entries; values can stand above or below the substance they belong to.

Tests used:
Assay in all cases: Calcium imaging of cells transfected with the GPCR (Table 1)
Type in all cases: cell-based
[1] = molecular target: T1, NK1R (NK1) (Homo sapiens, UniProt P25103); conditions: FIG. 6a: SP 5 nM, inhibitors 1 μM
T1 construct: host or cells: HeLa cells, pcDNA3.1(-)
Experimental: (§1) Human NK1 cDNA was obtained from LIFE Technologies, PCR cloned with Xho I-Hind III ends and cloned into pcDNA3.1(−). Mouse NK2 and NK3 expression-ready vectors were obtained from […] (Piscataway, N.J.). All other Mrgprs (human MRGPRX1, human MRGPRX2, human MRGPRX3, human MRGPRX4, mouse MrgprA2a, mouse MrgprA2b, mouse MrgprA3, mouse MrgprA4, mouse MrgprA9, mouse MrgprA10, mouse MrgprB4 and mouse MrgprB5) were cloned by PCR from genomic DNAs and inserted into pcDNA3.1 (−).
(§2) 10 μg of expression vector (human MRGPRX2, mouse MrgprA1 or NK1) and 10 μl of LIPOFECTAMINE 2000 transfection reagent were diluted into 0.5 ml of DMEM and separately left at room temperature (RT) for 5 min. They were then mixed and incubated at RT for 20 minutes prior to being added to HeLa cells. HeLa cells were grown to confluence, trypsinized and 1×10^6 cells were pelleted in a 15 ml tube by centrifugation at 1000 rpm for 5 minutes. […]
(§3) Calcium imaging was performed immediately after loading cells with Fura-2, using a ZEISS Axiovert 200M microscope platform equipped with a flipping filter wheel for ratiometric imaging. […] The software later analyzed all images taken during each excitation period. Ratiometric changes were measured in 10-20 cells in each individual experiment. An average of the fluorescence of the cells in each image was calculated and plotted against time in seconds.

[2] = molecular target: T2, MrgA3 (mouse MrgprA3) (Mus musculus, UniProt Q91WW3); conditions: FIG. 7c: CQ 100 μM, QWF 100 μM
T2 construct: expressed in transfected cells; host or cells: HeLa cells, pcDNA3.1(-)
T2 sequence (Q91WW3 1-302): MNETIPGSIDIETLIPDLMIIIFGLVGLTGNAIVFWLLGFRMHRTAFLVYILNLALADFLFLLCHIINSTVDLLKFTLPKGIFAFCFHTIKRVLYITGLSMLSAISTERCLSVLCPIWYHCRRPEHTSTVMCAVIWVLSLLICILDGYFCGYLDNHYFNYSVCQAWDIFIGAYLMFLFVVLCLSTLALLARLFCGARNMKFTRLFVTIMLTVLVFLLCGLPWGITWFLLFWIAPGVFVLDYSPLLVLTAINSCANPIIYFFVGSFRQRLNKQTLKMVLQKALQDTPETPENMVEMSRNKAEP
Experimental: as §1
10 μg of expression vector (human MRGPRX2, mouse MrgprA1 or NK1) and 10 μl of LIPOFECTAMINE 2000 transfection reagent were diluted into 0.5 ml of DMEM and separately left at room temperature (RT) for 5 min. They were then mixed and incubated at RT for 20 minutes prior to being added to HeLa cells. HeLa cells were grown to confluence, trypsinized and 1×10^6 cells were pelleted in a 15 ml tube by centrifugation at 1000 rpm for 5 minutes. The DMEM-LIPOFECTAMINE 2000-DNA mixture (1 ml) was then added to the cell pellet, suspended and incubated at RT for 5 minutes. 2 ml of complete DMEM with 10% FBS without antibiotics were added to the tube, mixed by inverting the tube, plated into a 96-well glass bottom plate at 50,000 cells/well, and placed in a 37° C. CO2 incubator for 3 hours. HeLa cells transfected with salmon sperm DNA were plated as a control. The medium was changed after 3 hours and left in the incubator. 24 hours after transfection, the medium in the wells was removed and 100 μl of complete DMEM containing 2 μM of FURA-2 were added to each well and left at room temperature in the dark for 1 hr.
Calcium imaging was performed immediately after loading cells with Fura-2, using a ZEISS Axiovert 200M microscope platform equipped with a flipping filter wheel for ratiometric imaging. Axiovision software, version 4.6 was used for calcium image analysis of the cells excited at 340 nm and 380 nm. Agonists were added at 15 seconds after the start of the excitation procedure. Antagonists were added five minutes before imaging with the agonists. Images were taken every 5 seconds, including at zero time, during a 90 second period or longer if required. The software later analyzed all images taken during each excitation period. Ratiometric changes were measured in 10-20 cells in each individual experiment. An average of the fluorescence of the cells in each image was calculated and plotted against time in seconds.

[3] = molecular target: T3, MrgX3 (human MRGPRX3) (Homo sapiens, UniProt Q96LB0); conditions: SP 10 μM (FIG. 9)
T3 construct: expressed in transfected cells; host or cells: HeLa cells, pcDNA3.1(-)
Experimental: as §1, §2
as §3, with “seconds. […]” for “seconds.”

[4] = molecular target: T4, MrgX4 (human MRGPRX4) (Homo sapiens, UniProt Q96LA9); conditions: SP 10 μM (FIG. 9)
T4 construct: expressed in transfected cells; host or cells: HeLa cells, pcDNA3.1(-)
Experimental: as §1, §2
as §3, with “seconds. […]” for “seconds.”

[5] = molecular target: T5, MrgC11 (mouse MrgprC11) (Mus musculus, UniProt Q8CIP3); conditions: capsaicin 3 μM
T5 construct: expressed in transfected cells; host or cells: HeLa cells
T5 sequence (Q8CIP3 1-322): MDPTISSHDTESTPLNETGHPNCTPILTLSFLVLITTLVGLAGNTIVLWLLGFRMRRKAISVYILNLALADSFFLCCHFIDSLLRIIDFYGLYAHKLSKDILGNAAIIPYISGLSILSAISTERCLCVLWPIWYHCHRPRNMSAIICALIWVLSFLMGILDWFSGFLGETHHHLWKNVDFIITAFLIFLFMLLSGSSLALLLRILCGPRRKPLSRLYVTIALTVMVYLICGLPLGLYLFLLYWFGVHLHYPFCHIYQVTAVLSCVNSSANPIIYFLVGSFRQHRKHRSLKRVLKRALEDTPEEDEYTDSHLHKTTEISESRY

T1 sequence (P25103 whole entry): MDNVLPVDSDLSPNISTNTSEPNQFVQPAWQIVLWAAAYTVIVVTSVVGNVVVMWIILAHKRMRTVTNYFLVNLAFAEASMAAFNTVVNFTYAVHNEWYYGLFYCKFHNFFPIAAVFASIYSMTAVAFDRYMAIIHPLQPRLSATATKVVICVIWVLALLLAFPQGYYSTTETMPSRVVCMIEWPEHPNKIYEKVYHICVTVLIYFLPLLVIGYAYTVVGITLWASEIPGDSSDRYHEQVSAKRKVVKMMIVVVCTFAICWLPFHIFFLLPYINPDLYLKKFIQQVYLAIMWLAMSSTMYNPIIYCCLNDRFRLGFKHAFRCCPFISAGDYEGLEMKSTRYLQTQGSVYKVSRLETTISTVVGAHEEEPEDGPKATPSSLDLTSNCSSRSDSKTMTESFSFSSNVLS
T3 sequence (Q96LB0 whole entry): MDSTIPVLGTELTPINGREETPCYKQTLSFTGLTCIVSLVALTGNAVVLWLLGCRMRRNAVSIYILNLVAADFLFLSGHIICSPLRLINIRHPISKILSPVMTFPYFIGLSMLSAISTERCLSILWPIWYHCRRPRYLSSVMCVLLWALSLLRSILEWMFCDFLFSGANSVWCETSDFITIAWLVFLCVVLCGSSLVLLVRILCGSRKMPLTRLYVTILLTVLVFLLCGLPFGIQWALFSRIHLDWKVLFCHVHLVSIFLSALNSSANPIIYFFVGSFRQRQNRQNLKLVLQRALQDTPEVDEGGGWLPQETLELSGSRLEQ
T4 sequence (Q96LA9 whole entry): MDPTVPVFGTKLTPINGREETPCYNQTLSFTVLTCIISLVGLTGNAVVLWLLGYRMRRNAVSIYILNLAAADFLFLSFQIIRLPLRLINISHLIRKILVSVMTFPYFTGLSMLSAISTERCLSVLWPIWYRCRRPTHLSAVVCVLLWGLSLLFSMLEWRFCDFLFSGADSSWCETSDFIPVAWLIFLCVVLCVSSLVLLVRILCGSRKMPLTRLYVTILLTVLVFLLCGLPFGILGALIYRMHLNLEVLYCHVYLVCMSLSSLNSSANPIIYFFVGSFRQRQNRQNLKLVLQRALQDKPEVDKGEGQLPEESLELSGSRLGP

inhibition of NK1 (activation by SP) [1]: inhibit; also recorded: blocks
Substance: Boc-Gln-D-Trp(Formyl)-Phe benzyl ester trifluoroacetate [QWF]
inhibition of MrgprA3 activation by chloroquine (CQ) [2]: does not affect; also recorded: does not inhibit

activation of hMRGPRX3 by the substance (in words) [3]: does not activate | activation of hMRGPRX4 by the substance (in words) [4]: does not activate
Substance: SP: inflammatory undecapeptide neuropeptide of the tachykinin family, synthesized by GenScript

activation of mouse MrgprC11 by the substance (in words) [5]: activates
Substance: SLIGRL: tethered hexapeptide ligand of mouse PAR2 (SEQ ID NO: 7)
